Data published in PMC8996997 (2022).

Target: His×6-YY1(wt) (human, UniProt P25490 1-414)
Test: SPR

B1: His×6-YY1(260–414) (domain or fragment)
chain: LPPGGIPGIDLSDPKQLAEFARMKPRKIKEDDAPRTIACPHKGCTKMFRDNSAMRKHLHTHGPRVHVCAECGKAFVESSKLKRHQLVHTGEKPFQCTFEGCGKRFSLDFNLRTHVRIHTGDRPYVCPFDGCNKKFAQSTNLKSHILTHAKAKNNQ
- Kd: 258 nM
